Molecular target: the molecule itself
Assay: crystal structure

B1: Methanococcus jannaschii Thi4 (thiazole synthase) (enzyme)
chain: MVNLMNIKDIKLNADETKTTKAILKASFDMWLDIVEADVVIVGAGPSGLTCARYLAKEGFKVVVLERHLAFGGGTWGGGMGFPYIVVEEPADELLREVGIKLIDMGDGYYVADSVEVPAKLAVAAMDAGAKILTGIVVEDLILREDGVAGVVINSYAIERAGLHIDPLTIRSKVVVDATGHEASIVNILVKKNKLEADVPGEKSMWAEKGENALLRNTREVYPNLFVCGMAANASHGGYRMGAIFGGMYLSGKLCAELITEKLKNKE
stoichiometry N: 8
